Experimental data from publication PMC5449173.

How the values were obtained:
[1] = target: RPTPσ (transfected in 293T/17 cells for native PAGE) (not stated (human or mouse cDNA cloned)); assay: native gel or EMSA; lysates (NP-40 buffer) of RPTPσ-transfected 293T/17 cells in Coomassie blue sample buffer, native PAGE, western blot; cells untreated or treated with CSPG for 30 min
[2] = target: RPTPσ FC (full-length RPTPσ fused to FKBP-Cluc) (not stated (human or mouse cDNA cloned) | not stated); assay: split reporter (BiFC, NanoBiT); split firefly luciferase; 293T/17 cells co-transfected with RPTPσ FN/FC, 48 h, rapamycin for 4 hr against DMSO control

RPTPσ (transfected in 293T/17 cells for native PAGE) (receptor)
stoichiometry N [1]: 2

RPTPσ FN (full-length RPTPσ fused to FRB-Nluc)
fold increase of bioluminescence with rapamycin against control cells [2]: 3 fold
